Assay results published in paper PMC6707142, “Orthogonal monoterpenoid biosynthesis in yeast constructed on an isomeric substrate” (Nature Communications, 2019).

How the values were obtained:
[1] = substrate: CC(C)=CCC/C(C)=C/COP(=O)(O)OP(=O)(O)O; assay: GC-MS of hexane-extracted monoterpene products; format: biochemical, Citrus x limon; settings: 20 mM MOPS pH 7.0, 20 mM MgCl2, 0.02 mM MnCl2, 30 °C, 1 h
From the text: (§1) GC-MS of hexane-extracted monoterpene products on […]

[2] = substrate: CC(C)=CCC/C(C)=C\COP(=O)(O)OP(=O)(O)O; assay: GC-MS of hexane-extracted monoterpene products; format: biochemical, Citrus x limon; settings: 20 mM MOPS pH 7.0, 20 mM MgCl2, 0.02 mM MnCl2, 30 °C, 1 h
From the text: as §1

purified protein = substrate: C=C(C)CCO[P@@](=O)(O)OP(=O)(O)O; assay: purified protein; settings: 0.05 mM DMAPP, 10 mM MOPS pH 7.0, 5 mM MgCl2, 30 °C, 1 h
[3] = substrate: CC(C)=CCOP(=O)(O)OP(=O)(O)O; assay: GC-MS after acid hydrolysis of prenyl diphosphates; format: biochemical, Solanum lycopersicum; settings: 0.05 mM IPP, 10 mM MOPS pH 7.0, 5 mM MgCl2, 30 °C, 1 h
[4] = substrate: CC(C)=CCC/C(C)=C/COP(=O)(O)OP(=O)(O)O; assay: GC-MS of hexane-extracted monoterpene products; format: biochemical, Salvia fruticosa; settings: 20 mM MOPS pH 7.0, 20 mM MgCl2, 0.02 mM MnCl2, 30 °C, 1 h
From the text: (§2) GC-MS of hexane-extracted monoterpene products on […]1

[5] = substrate: CC(C)=CCC/C(C)=C\COP(=O)(O)OP(=O)(O)O; assay: GC-MS of hexane-extracted monoterpene products; format: biochemical, Salvia fruticosa; settings: 20 mM MOPS pH 7.0, 20 mM MgCl2, 0.02 mM MnCl2, 30 °C, 1 h
From the text: as §2

B1: ClLimS (Citrus x limon) (protein)
chain: AKYKPVQCLISAKYDNLTVDRRSANYQPSIWDHDFLQSLNSNYTDEAYKRRAEELRGKVKIAIKDVIEPLDQLELIDNLQRLGLAHRFETEIRNILNNIYNNNKDYNWRKENLYATSLEFRLLRQHGYPVSQEVFNGFKDDQGGFICDDFKGILSLHEASYYSLEGESIMEEAWQFTSKHLKEVMISKNMEEDVFVAEQAKRALELPLHWKVPMLEARWFIHIYERREDKNHLLLELAKMEFNTLQAIYQEELKEISGWWKDTGLGEKLSFARNRLVASFLWSMGIAFEPQFAYCRRVLTISIALITVIDDIYDVYGTLDELEIFTDAVERWDINYALKHLPGYMKMCFLALYNFVNEFAYYVLKQQDFDLLLSIKNAWLGLIQAYLVEAKWYHSKYTPKLEEYLENGLVSITGPLIITISYLSGTNPIIKKELEFLESNPDIVHWSSKIFRLQDDLGTSSDEIQRGDVPKSIQCYMHETGASEEVARQHIKDMMRQMWKKVNAYTADKDSPLTGTTTEFLLNLVRMSHFMYLHGDGHGVQNQETIDVGFTLLFQPIPLEDKHMAFTASPGTKG
notes: 6xHis-tagged, E. coli BL21(DE3), Ni-NTA purified; printed as (+)-S-limonene synthase
B1 was tested, and the Km [1] was 24.94 ± 3.76 µM, the kcat [1] was 0.306 ± 0.0147 s⁻¹ and the kcat/Km [1] was 12200 M⁻¹ s⁻¹. For the same protein, the Km [2] was 81.55 ± 7.33 µM, the kcat [2] was 0.619 ± 0.0293 s⁻¹ and the kcat/Km [2] was 7600 M⁻¹ s⁻¹.

B2: ClLimS (Citrus x limon; H570I) (protein)
chain: AKYKPVQCLISAKYDNLTVDRRSANYQPSIWDHDFLQSLNSNYTDEAYKRRAEELRGKVKIAIKDVIEPLDQLELIDNLQRLGLAHRFETEIRNILNNIYNNNKDYNWRKENLYATSLEFRLLRQHGYPVSQEVFNGFKDDQGGFICDDFKGILSLHEASYYSLEGESIMEEAWQFTSKHLKEVMISKNMEEDVFVAEQAKRALELPLHWKVPMLEARWFIHIYERREDKNHLLLELAKMEFNTLQAIYQEELKEISGWWKDTGLGEKLSFARNRLVASFLWSMGIAFEPQFAYCRRVLTISIALITVIDDIYDVYGTLDELEIFTDAVERWDINYALKHLPGYMKMCFLALYNFVNEFAYYVLKQQDFDLLLSIKNAWLGLIQAYLVEAKWYHSKYTPKLEEYLENGLVSITGPLIITISYLSGTNPIIKKELEFLESNPDIVHWSSKIFRLQDDLGTSSDEIQRGDVPKSIQCYMHETGASEEVARQHIKDMMRQMWKKVNAYTADKDSPLTGTTTEFLLNLVRMSHFMYLHGDGIGVQNQETIDVGFTLLFQPIPLEDKHMAFTASPGTKG
notes: as for B1
With B2 the Km [1] was 24.43 ± 6.44 µM, the kcat [1] was 0.0035 ± 0.000333 s⁻¹ and the kcat/Km [1] was 150 M⁻¹ s⁻¹. The Km [2] was 27.06 ± 4.72 µM, the kcat [2] was 0.0317 ± 0.00217 s⁻¹ and the kcat/Km [2] was 1170 M⁻¹ s⁻¹.

B3: ClLimS (Citrus x limon; H570Y) (protein)
chain: AKYKPVQCLISAKYDNLTVDRRSANYQPSIWDHDFLQSLNSNYTDEAYKRRAEELRGKVKIAIKDVIEPLDQLELIDNLQRLGLAHRFETEIRNILNNIYNNNKDYNWRKENLYATSLEFRLLRQHGYPVSQEVFNGFKDDQGGFICDDFKGILSLHEASYYSLEGESIMEEAWQFTSKHLKEVMISKNMEEDVFVAEQAKRALELPLHWKVPMLEARWFIHIYERREDKNHLLLELAKMEFNTLQAIYQEELKEISGWWKDTGLGEKLSFARNRLVASFLWSMGIAFEPQFAYCRRVLTISIALITVIDDIYDVYGTLDELEIFTDAVERWDINYALKHLPGYMKMCFLALYNFVNEFAYYVLKQQDFDLLLSIKNAWLGLIQAYLVEAKWYHSKYTPKLEEYLENGLVSITGPLIITISYLSGTNPIIKKELEFLESNPDIVHWSSKIFRLQDDLGTSSDEIQRGDVPKSIQCYMHETGASEEVARQHIKDMMRQMWKKVNAYTADKDSPLTGTTTEFLLNLVRMSHFMYLHGDGYGVQNQETIDVGFTLLFQPIPLEDKHMAFTASPGTKG
notes: as for B1
Protein B3 has a Km [1] of 11.76 ± 4.82 µM, a kcat [1] of 0.149 ± 0.00717 s⁻¹ and a kcat/Km [1] of 12600 M⁻¹ s⁻¹. It also gave a Km [2] of 23.98 ± 6.41 µM, a kcat [2] of 0.364 ± 0.0277 s⁻¹ and a kcat/Km [2] of 15200 M⁻¹ s⁻¹.

B4: SlNPPS1 (Solanum lycopersicum) (protein)
chain: SARGLNKISCSLNLQTEKLCYEDNDNDLDEELMPKHIALIMDGNRRWAKDKGLEVYEGHKHIIPKLKEICDISSKLGIQIITAFAFSTENWKRSKEEVDFLLQMFEEIYDEFSRSGVRVSIIGCKSDLPMTLQKCIALTEETTKGNKGLHLVIALNYGGYYDILQATKSIVNKAMNGLLDVEDINKNLFDQELESKCPNPDLLIRTGGEQRVSNFLLWQLAYTEFYFTNTLFPDFGEEDLKEAIMNFQQRHRRFGGHTY
B4 showed a Km (purified protein) of 83.69 ± 17.41 µM, a kcat (purified protein) of 0.000683 ± 5e-05 s⁻¹ and a Km [3] of 66.72 ± 6.32 µM. For the same protein, the kcat [3] was 0.000617 ± 1.7e-05 s⁻¹.

B5: SfCinS1 (Salvia fruticosa; F571V) (protein)
chain: CSLQTGNEIQTERRTGGYQPTLWDFSTIQSFDSEYKEEKHLMRAAGMIDQVKMMLQEEVDSIRRLELIDDLRRLGISCHFEREIVEILNSKYYTNNEIDERDLYSTALRFRLLRQYDFSVSQEVFDCFKNAKGTDFKPSLVDDTRGLLQLYEASFLSAQGEETLRLARDFATKFLQKRVLVDKDINLLSSIERALELPTHWRVQMPNARSFIDAYKRRPDMNPTVLELAKLDFNMVQAQFQQELKEASRWWNSTGLVHELPFVRDRIVECYYWTTGVVERRQHGYERIMLTKINALVTTIDDVFDIYGTLEELQLFTTAIQRWDIESMKQLPPYMQICYLALFNFVNEMAYDTLRDKGFDSTPYLRKVWVGLIESYLIEAKWYYKGHKPSLEEYMKNSWISIGGIPILSHLFFRLTDSIEEEAAESMHKYHDIVRASCTILRLADDMGTSLDEVERGDVPKSVQCYMNEKNASEEEAREHVRSLIDQTWKMMNKEMMTSSFSKYFVEVSANLARMAQWIYQHESDGVGMQHSLVNKMLRDLLFHRYE
notes: 6xHis-tagged, E. coli BL21(DE3), Ni-NTA purified
Work on B5 yielded a Km [4] of 271.5 ± 95.30 µM, a kcat [4] of 0.00533 ± 0.00133 s⁻¹ and a kcat/Km [4] of 16.7 M⁻¹ s⁻¹. For the same protein, the Km [5] was 67.24 ± 13.30 µM, the kcat [5] was 0.0075 ± 0.000667 s⁻¹ and the kcat/Km [5] was 117 M⁻¹ s⁻¹.

B6: SfCinS1 (Salvia fruticosa; F571H) (protein)
chain: CSLQTGNEIQTERRTGGYQPTLWDFSTIQSFDSEYKEEKHLMRAAGMIDQVKMMLQEEVDSIRRLELIDDLRRLGISCHFEREIVEILNSKYYTNNEIDERDLYSTALRFRLLRQYDFSVSQEVFDCFKNAKGTDFKPSLVDDTRGLLQLYEASFLSAQGEETLRLARDFATKFLQKRVLVDKDINLLSSIERALELPTHWRVQMPNARSFIDAYKRRPDMNPTVLELAKLDFNMVQAQFQQELKEASRWWNSTGLVHELPFVRDRIVECYYWTTGVVERRQHGYERIMLTKINALVTTIDDVFDIYGTLEELQLFTTAIQRWDIESMKQLPPYMQICYLALFNFVNEMAYDTLRDKGFDSTPYLRKVWVGLIESYLIEAKWYYKGHKPSLEEYMKNSWISIGGIPILSHLFFRLTDSIEEEAAESMHKYHDIVRASCTILRLADDMGTSLDEVERGDVPKSVQCYMNEKNASEEEAREHVRSLIDQTWKMMNKEMMTSSFSKYFVEVSANLARMAQWIYQHESDGHGMQHSLVNKMLRDLLFHRYE
notes: as for B5
Protein B6 has a Km [4] of 18.05 ± 5.07 µM, a kcat [4] of 0.0143 ± 0.0015 s⁻¹ and a kcat/Km [4] of 800 M⁻¹ s⁻¹. It also gave a Km [5] of 238.1 ± 34.35 µM, a kcat [5] of 0.0123 ± 0.00133 s⁻¹ and a kcat/Km [5] of 50 M⁻¹ s⁻¹.

B7: SfCinS1 (Salvia fruticosa) (protein)
chain: CSLQTGNEIQTERRTGGYQPTLWDFSTIQSFDSEYKEEKHLMRAAGMIDQVKMMLQEEVDSIRRLELIDDLRRLGISCHFEREIVEILNSKYYTNNEIDERDLYSTALRFRLLRQYDFSVSQEVFDCFKNAKGTDFKPSLVDDTRGLLQLYEASFLSAQGEETLRLARDFATKFLQKRVLVDKDINLLSSIERALELPTHWRVQMPNARSFIDAYKRRPDMNPTVLELAKLDFNMVQAQFQQELKEASRWWNSTGLVHELPFVRDRIVECYYWTTGVVERRQHGYERIMLTKINALVTTIDDVFDIYGTLEELQLFTTAIQRWDIESMKQLPPYMQICYLALFNFVNEMAYDTLRDKGFDSTPYLRKVWVGLIESYLIEAKWYYKGHKPSLEEYMKNSWISIGGIPILSHLFFRLTDSIEEEAAESMHKYHDIVRASCTILRLADDMGTSLDEVERGDVPKSVQCYMNEKNASEEEAREHVRSLIDQTWKMMNKEMMTSSFSKYFVEVSANLARMAQWIYQHESDGFGMQHSLVNKMLRDLLFHRYE
notes: as for B5
In the case of B7, the Km [4] is reported as 26.12 ± 2.79 µM, the kcat [4] is reported as 0.0927 ± 0.00633 s⁻¹ and the kcat/Km [4] is reported as 3550 M⁻¹ s⁻¹. It also gave a Km [5] of 89.46 ± 4.99 µM, a kcat [5] of 0.203 ± 0.0445 s⁻¹ and a kcat/Km [5] of 2280 M⁻¹ s⁻¹.

B8: SfCinS1 (Salvia fruticosa; F571L) (protein)
chain: CSLQTGNEIQTERRTGGYQPTLWDFSTIQSFDSEYKEEKHLMRAAGMIDQVKMMLQEEVDSIRRLELIDDLRRLGISCHFEREIVEILNSKYYTNNEIDERDLYSTALRFRLLRQYDFSVSQEVFDCFKNAKGTDFKPSLVDDTRGLLQLYEASFLSAQGEETLRLARDFATKFLQKRVLVDKDINLLSSIERALELPTHWRVQMPNARSFIDAYKRRPDMNPTVLELAKLDFNMVQAQFQQELKEASRWWNSTGLVHELPFVRDRIVECYYWTTGVVERRQHGYERIMLTKINALVTTIDDVFDIYGTLEELQLFTTAIQRWDIESMKQLPPYMQICYLALFNFVNEMAYDTLRDKGFDSTPYLRKVWVGLIESYLIEAKWYYKGHKPSLEEYMKNSWISIGGIPILSHLFFRLTDSIEEEAAESMHKYHDIVRASCTILRLADDMGTSLDEVERGDVPKSVQCYMNEKNASEEEAREHVRSLIDQTWKMMNKEMMTSSFSKYFVEVSANLARMAQWIYQHESDGLGMQHSLVNKMLRDLLFHRYE
notes: as for B5
Work on B8 yielded a Km [4] of 55.72 ± 9.22 µM, a kcat [4] of 0.00733 ± 0.00117 s⁻¹ and a kcat/Km [4] of 133 M⁻¹ s⁻¹. The Km [5] was 71.82 ± 17.63 µM, the kcat [5] was 0.0107 ± 0.00133 s⁻¹ and the kcat/Km [5] was 150 M⁻¹ s⁻¹.
